Assay results published in patent US10087225B2, “Formulation of MK2 inhibitor peptides” (MOERAE MATRIX, INC., priority 2015, dated 2018).

What was measured:
Test in all cases: Kinase Profiling Assay
Type in all cases: biochemical
MAPK1(h) = MAPK1(h) (Homo sapiens, UniProt P27361)
PrKX(h) = molecular target: T1, PrKX(h) (Homo sapiens, UniProt P51817)
T1 sequence (P51817 1-358): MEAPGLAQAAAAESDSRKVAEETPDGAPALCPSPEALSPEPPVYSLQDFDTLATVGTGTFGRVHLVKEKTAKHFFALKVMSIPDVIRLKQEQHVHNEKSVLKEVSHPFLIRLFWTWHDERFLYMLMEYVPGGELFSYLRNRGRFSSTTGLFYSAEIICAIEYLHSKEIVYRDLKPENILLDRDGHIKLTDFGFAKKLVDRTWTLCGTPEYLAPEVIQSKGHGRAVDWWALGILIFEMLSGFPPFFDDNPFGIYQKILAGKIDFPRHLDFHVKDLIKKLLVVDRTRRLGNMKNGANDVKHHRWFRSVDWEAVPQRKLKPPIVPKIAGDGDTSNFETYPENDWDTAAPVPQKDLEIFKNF

TrkA(h) = TrkA(h) (Homo sapiens, UniProt P04629)
Sequence of TrkA(h) (P04629 33-796): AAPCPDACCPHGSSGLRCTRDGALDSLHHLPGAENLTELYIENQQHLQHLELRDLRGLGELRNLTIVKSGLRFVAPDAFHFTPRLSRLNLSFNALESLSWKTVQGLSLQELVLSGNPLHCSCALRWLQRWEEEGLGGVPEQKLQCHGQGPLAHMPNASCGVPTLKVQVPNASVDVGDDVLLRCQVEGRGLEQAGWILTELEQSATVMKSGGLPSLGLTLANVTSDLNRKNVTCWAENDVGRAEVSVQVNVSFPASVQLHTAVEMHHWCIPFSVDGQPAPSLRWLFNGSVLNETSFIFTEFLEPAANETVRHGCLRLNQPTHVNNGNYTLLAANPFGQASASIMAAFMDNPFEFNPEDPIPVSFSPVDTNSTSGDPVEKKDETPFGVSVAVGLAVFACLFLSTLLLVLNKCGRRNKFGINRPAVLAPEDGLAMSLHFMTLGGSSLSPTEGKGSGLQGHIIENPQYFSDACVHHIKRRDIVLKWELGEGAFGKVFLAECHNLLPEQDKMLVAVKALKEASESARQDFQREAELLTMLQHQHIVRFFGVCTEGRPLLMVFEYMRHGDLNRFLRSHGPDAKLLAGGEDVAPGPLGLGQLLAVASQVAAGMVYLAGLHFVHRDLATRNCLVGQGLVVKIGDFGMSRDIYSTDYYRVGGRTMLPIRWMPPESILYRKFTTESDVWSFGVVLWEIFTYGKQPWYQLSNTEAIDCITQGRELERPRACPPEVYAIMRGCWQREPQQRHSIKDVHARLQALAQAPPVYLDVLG

DYRK2(h) = molecular target: T2, DYRK2(h) (Homo sapiens, UniProt Q92630); conditions: 100 μM
T2 sequence (Q92630 1-601): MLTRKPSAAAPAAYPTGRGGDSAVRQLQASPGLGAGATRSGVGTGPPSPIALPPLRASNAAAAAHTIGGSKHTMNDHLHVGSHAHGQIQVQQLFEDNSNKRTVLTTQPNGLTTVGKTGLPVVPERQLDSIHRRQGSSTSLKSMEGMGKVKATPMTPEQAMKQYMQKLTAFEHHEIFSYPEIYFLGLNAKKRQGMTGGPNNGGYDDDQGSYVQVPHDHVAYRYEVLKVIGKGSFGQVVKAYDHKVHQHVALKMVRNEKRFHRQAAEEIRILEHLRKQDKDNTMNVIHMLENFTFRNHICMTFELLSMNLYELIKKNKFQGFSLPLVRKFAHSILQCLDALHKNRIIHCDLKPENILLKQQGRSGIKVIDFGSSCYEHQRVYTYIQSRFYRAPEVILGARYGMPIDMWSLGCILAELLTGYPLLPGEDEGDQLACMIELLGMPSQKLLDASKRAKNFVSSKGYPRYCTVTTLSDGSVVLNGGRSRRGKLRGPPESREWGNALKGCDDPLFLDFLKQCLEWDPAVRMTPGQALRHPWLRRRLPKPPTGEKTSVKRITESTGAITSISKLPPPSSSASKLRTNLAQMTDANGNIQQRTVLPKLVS

PKBβ(h) = PKBβ(h) (Homo sapiens, UniProt P31751); conditions: 100 μM
Sequence of PKBβ(h) (P31751 whole entry): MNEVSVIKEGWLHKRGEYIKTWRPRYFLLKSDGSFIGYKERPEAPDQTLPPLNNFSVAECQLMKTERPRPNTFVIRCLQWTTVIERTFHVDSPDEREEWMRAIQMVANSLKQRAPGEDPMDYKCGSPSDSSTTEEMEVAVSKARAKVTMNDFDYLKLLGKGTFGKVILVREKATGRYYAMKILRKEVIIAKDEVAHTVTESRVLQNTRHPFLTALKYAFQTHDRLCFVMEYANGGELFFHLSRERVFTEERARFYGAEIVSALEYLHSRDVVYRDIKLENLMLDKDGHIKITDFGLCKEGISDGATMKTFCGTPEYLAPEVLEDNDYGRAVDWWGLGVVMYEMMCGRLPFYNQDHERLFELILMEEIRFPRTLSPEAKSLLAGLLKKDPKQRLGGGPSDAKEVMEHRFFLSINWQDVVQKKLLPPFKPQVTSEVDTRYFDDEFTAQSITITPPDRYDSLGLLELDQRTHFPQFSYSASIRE

Src(T341M)(h) = Src(T341M)(h) (Homo sapiens, UniProt P12931, T341M); conditions: 100 μM
MKK6(h) = molecular target: T3, MKK6(h) (Homo sapiens, UniProt P52564); conditions: 100 μM
T3 sequence (P52564 1-334): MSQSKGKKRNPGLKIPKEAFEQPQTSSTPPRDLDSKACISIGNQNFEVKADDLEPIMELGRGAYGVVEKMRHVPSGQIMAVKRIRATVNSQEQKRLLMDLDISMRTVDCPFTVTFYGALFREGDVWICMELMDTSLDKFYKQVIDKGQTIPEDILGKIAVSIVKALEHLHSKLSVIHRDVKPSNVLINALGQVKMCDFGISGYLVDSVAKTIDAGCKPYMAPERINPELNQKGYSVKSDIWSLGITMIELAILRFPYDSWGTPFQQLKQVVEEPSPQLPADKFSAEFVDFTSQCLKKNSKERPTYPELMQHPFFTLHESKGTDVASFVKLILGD

EphB3(h) = molecular target: T4, EphB3(h) (Homo sapiens, UniProt P54753); conditions: 100 μM
T4 sequence (P54753 34-998): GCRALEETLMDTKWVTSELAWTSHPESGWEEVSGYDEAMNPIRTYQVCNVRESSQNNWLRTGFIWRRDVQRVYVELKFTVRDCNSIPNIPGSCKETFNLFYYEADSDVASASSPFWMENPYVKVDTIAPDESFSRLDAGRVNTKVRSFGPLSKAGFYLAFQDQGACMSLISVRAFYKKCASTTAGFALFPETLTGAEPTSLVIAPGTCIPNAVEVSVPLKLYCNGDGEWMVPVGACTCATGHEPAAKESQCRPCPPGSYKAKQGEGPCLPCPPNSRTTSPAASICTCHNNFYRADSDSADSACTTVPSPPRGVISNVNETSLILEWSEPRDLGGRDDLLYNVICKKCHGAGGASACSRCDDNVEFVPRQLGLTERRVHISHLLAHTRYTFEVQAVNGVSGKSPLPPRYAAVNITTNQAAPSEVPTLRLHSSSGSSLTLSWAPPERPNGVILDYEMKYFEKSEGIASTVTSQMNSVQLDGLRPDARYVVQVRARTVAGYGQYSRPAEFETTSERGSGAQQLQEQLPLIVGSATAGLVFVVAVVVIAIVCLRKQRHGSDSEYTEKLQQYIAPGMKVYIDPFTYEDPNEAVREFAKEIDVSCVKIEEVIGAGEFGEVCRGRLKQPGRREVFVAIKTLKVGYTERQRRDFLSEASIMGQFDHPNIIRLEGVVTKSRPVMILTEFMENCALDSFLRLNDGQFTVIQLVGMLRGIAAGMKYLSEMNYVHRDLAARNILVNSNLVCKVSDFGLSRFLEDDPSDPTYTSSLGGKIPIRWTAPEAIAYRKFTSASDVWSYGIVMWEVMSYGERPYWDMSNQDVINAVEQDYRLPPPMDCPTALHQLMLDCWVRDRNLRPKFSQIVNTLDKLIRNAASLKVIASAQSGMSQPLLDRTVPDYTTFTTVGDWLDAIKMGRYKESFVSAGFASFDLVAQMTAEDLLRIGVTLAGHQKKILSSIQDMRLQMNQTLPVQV

Src(1-530)(h) = molecular target: T5, Src(1-530)(h) (Homo sapiens, UniProt P12931); conditions: 100 μM
T5 construct: Src(1-530)(h)

mTOR/FKBP12(h) = mTOR/FKBP12(h) (Homo sapiens, UniProt P42345); conditions: 100 μM
Sequence of mTOR/FKBP12(h) (P42345 1362-2549 limits assumed): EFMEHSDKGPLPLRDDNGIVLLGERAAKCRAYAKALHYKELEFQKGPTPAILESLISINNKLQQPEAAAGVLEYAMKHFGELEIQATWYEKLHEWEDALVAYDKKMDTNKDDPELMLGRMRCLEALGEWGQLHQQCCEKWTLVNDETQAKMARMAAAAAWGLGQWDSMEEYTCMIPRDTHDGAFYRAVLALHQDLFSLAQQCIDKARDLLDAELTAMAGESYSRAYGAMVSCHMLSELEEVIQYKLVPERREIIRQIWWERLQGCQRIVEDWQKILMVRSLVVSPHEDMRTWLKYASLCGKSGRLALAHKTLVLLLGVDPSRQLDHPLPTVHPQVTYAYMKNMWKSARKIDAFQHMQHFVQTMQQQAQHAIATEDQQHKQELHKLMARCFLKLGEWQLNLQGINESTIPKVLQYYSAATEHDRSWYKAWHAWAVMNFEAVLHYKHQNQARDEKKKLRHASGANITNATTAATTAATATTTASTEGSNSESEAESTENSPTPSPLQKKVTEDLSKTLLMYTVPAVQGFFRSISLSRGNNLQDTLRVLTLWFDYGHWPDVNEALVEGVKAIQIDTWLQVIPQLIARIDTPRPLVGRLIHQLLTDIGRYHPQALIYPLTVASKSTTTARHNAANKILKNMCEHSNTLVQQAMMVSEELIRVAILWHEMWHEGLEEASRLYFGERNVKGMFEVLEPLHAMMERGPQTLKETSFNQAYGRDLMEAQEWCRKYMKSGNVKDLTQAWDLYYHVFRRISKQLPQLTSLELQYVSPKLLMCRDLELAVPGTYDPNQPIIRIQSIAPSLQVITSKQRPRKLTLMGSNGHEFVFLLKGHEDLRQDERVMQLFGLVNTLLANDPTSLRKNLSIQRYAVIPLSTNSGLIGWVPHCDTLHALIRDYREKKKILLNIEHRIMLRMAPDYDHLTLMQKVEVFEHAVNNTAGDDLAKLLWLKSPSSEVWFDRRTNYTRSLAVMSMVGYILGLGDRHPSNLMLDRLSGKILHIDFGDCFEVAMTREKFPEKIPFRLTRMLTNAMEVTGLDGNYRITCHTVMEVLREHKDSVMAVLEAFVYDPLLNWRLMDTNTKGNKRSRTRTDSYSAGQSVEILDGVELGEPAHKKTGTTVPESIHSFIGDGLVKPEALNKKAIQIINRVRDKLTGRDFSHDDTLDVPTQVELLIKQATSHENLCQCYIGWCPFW

CaMKIIγ(h) = CaMKIIγ(h) (Homo sapiens, UniProt Q13555); conditions: 100 μM
Sequence of CaMKIIγ(h) (Q13555 whole entry): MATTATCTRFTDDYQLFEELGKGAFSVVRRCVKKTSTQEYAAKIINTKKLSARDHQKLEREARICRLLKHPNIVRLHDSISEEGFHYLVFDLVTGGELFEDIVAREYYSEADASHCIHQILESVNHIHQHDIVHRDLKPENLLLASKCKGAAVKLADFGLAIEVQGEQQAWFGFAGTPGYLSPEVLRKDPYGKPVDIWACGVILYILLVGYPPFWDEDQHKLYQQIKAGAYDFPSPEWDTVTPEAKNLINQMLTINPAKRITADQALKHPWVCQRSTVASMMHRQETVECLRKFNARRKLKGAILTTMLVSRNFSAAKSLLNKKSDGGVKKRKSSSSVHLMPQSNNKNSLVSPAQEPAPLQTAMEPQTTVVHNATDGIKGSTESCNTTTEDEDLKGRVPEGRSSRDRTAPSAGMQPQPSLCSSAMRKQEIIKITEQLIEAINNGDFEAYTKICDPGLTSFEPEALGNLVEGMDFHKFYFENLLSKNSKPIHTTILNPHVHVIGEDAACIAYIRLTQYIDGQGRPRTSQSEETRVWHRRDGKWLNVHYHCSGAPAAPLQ

FGFR4(h) = FGFR4(h) (Homo sapiens, UniProt P22455); conditions: 100 μM
Fes(h) = Fes(h) (Homo sapiens, UniProt P07332); conditions: 100 μM
Sequence of Fes(h) (P07332 whole entry): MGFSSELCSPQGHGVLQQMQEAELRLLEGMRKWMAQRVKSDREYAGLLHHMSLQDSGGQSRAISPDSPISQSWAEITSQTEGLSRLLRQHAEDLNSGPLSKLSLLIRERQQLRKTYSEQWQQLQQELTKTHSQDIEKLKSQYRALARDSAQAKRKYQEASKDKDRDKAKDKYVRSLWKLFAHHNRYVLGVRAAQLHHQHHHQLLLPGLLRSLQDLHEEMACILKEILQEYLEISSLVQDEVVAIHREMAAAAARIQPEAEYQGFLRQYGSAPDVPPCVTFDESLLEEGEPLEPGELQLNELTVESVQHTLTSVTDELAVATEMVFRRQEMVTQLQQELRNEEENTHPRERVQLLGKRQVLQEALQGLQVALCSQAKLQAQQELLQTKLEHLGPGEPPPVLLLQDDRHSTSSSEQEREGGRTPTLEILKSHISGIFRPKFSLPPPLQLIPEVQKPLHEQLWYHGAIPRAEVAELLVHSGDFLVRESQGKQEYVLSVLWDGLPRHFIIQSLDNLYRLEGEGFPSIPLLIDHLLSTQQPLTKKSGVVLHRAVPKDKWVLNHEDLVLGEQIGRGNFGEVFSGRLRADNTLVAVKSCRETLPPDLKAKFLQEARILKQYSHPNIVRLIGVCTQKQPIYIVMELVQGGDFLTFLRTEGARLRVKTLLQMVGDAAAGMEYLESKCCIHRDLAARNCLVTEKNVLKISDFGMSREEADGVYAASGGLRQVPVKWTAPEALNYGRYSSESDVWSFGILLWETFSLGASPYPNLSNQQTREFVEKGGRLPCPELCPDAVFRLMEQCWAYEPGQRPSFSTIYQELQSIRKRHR

Sequence of MAPK1(h) (P27361 whole entry): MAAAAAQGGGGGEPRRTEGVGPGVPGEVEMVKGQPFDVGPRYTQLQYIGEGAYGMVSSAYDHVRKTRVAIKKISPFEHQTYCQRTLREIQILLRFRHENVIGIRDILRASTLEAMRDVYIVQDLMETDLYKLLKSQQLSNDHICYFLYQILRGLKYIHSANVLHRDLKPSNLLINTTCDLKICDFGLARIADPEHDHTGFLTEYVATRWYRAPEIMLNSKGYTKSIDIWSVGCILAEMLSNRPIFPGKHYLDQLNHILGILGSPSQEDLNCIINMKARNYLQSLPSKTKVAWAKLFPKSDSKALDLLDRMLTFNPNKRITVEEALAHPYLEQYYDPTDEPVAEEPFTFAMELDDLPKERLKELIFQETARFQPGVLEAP

Substance | activity at 100 µM (MAPK1(h)) [%] | activity at 100 µM (PrKX(h)) [%] | activity at 100 µM (TrkA(h)) [%] | % activity (DYRK2(h)) [%] | % activity (PKBβ(h)) [%] | % activity (Src(T341M)(h)) [%] | % activity (MKK6(h)) [%] | % activity (EphB3(h)) [%] | % activity (Src(1-530)(h)) [%] | % activity (mTOR/FKBP12(h)) [%] | % activity (PrKX(h); 100 μM) [%] | % activity (CaMKIIγ(h)) [%] | % activity (TrkA(h); 100 μM) [%] | % activity (FGFR4(h)) [%] | % activity (Fes(h)) [%] | % activity (MAPK1(h); 100 μM) [%]
H-YARAAARQARAKALARQLGVAA-OH [MMI-0100] | 108 | 84 | 74 | – | – | – | – | – | – | – | – | – | – | – | – | –
HRRIKAWLKKIKALARQLGVAA (Mammalian) [MMI-0500] | – | – | – | 127 | 21 | 59 | 18 | 79 | 21 | 140 | 57 | 3 | 24 | 3 | 23 | –
YARAAARQARAKALNRQLGVA (Mammalian) [MMI-0200] | – | – | – | 142 | 250 | 56 | 98 | 128 | 75 | 118 | – | 94 | – | 75 | 74 | 97
